Experimental data taken from paper PMC9243006.

Molecular target: purified complement factor H protein (UniProt P06909)
Assay: SPR; CFH immobilised by amine coupling on a sensor chip; rTraT at 80, 40, 20, 10, 5 or 2.5 µg/ml

Sequence of UniProt P06909 (P06909 19-1234): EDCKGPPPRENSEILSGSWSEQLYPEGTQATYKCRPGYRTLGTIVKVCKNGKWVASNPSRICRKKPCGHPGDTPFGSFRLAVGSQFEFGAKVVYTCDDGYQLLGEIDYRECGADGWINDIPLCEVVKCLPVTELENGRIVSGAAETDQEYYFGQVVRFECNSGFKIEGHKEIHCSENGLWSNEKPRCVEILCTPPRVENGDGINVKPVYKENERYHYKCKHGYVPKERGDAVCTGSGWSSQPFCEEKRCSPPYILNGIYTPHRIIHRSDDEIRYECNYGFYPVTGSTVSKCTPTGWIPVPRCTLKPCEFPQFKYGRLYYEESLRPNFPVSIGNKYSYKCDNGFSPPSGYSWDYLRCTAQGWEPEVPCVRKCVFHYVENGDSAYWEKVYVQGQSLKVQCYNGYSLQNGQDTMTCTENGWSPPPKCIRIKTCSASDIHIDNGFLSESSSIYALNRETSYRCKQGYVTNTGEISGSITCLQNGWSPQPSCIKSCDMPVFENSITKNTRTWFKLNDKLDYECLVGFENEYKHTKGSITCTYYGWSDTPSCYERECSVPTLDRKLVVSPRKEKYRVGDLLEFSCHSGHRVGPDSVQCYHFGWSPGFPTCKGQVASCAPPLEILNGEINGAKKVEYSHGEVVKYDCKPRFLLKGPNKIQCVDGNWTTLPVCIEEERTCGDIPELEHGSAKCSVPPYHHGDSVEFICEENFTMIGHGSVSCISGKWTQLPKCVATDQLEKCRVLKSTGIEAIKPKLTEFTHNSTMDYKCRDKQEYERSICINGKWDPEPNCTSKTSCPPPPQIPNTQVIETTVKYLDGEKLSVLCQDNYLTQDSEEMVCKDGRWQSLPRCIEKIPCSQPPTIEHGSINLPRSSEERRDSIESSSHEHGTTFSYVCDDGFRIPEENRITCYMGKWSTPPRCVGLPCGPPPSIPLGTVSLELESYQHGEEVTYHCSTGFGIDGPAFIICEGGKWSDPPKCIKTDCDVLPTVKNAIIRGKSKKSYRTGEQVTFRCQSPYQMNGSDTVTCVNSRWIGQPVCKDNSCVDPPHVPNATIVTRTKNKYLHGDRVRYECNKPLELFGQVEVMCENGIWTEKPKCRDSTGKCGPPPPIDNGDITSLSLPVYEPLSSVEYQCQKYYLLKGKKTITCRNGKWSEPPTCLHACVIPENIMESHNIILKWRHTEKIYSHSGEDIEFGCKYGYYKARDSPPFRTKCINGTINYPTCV

recombinant TraT (rTraT) (domain or fragment)
Kd: 3.15 µM
